Assay results as given in patent US20250325651A1.

Tests used:
Experiment in all cases: sandwich ELISA (coated antibody, conditioned medium, anti-His detection), OD450 grade
[1] = molecular target: hMPV027C, furin-cleaved form of hMPV027 hMPV F-CompA fusion protein (human metapneumovirus (strain A))
[2] = molecular target: hMPV027 hMPV F-CompA fusion protein (not cleaved by furin) (human metapneumovirus (strain A))
[3] = molecular target: hMPV005 hMPV F-CompA fusion protein (human metapneumovirus (strain A))
[4] = molecular target: hMPV021 hMPV F-CompA fusion protein (human metapneumovirus (strain B))
[5] = molecular target: hMPV008 hMPV F-CompA fusion protein (human metapneumovirus (strain B))
[6] = molecular target: hMPV033 hMPV F-CompA fusion protein (human metapneumovirus (strain A))
[7] = molecular target: hMPV026 hMPV F-CompA fusion protein (not cleaved by furin) (human metapneumovirus (strain A))
[8] = molecular target: hMPV024 hMPV F-CompA fusion protein (human metapneumovirus (strain A))

Measured: OD450

MPE8 (antibody)
1 to 2 od: all assays above
